Earlier results on two substances are cited in PMC7070747.

Broadly, the Kd is the constant that tells how readily two partners part at equilibrium.

Data set [1] addresses Fibronectin extra domain B EDB (Homo sapiens) (UniProt P02751).
The target of data set [2] is integrin αvβ5 (Homo sapiens) (UniProt P06756).
Data set [3] concerns the target integrin αvβ3 (Homo sapiens) (UniProt P06756).

UniProt P02751, sequence (P02751 1266-1356): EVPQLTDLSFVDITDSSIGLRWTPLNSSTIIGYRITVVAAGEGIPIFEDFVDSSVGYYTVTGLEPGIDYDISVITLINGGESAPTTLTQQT

Regarding ZD2, the Kd in data set [1] was 11000 nM.

For iRGD, the Kd in data set [2] was 62 nM; in data set [3], 18 nM.
